Test results taken from patent US12630632B2, “Bispecific HER2 and CD3 binding molecules” (Memorial Sloan Kettering Cancer Center, priority 2017, dated 2026).

System: naïve T cells
Test: T cell proliferation (WST-8)
Assay type: cell-based, human
Conditions: 67 nM antibody, 6 days
Description: For T cell proliferation, naïve T cells were purified from human PBMC using Pan T cell isolation kit (Miltenyi Biotec). 2×10^5 purified T cells were mixed with different antibodies in 96-well cell culture plate to a final volume of 250 μl/well. T cells were cultured and maintained in RPMI-1640 supplemented with 10% FBS in 37° C. for 6 days. T cell proliferation was quantitated using the WST-8 kit as described above.

B1: huOKT3 Fab: monovalent Fab prepared from huOKT3 IgG1 (antibody, V domains shown)
VH: QVQLVQSGGGVVQPGRSLRLSCKASGYTFTRYTMHWVRQAPGKGLEWIGYINPSRGYTNYNQKFKDRFTISRDNSKNTAFLQMDSLRPEDTGVYFCARYYDDHYCLDYWGQGTPVTVSS
VL: DIQMTQSPSSLSASVGDRVTITCSASSSVSYMNWYQQTPGKAPKRWIYDTSKLASGVPSRFSGSGSGTDYTFTISSLQPEDIATYYCQQWSSNPFTFGQGTKLQITR
T cell proliferation in the absence of tumor targets: negligible effects
